Assay results as given in patent publication US7312045B2, “Aggrecanase-1 and -2 peptide substrates and methods” (Ortho-McNeil Pharmaceutical, Inc., priority 2002, dated 2007).
Primed or numbered codes have the meaning given here. No end group written: not given here. *: point of attachment. Dabcyl′ = CN(C)c1ccc(/N=N/c2ccc(C(=O)*)cc2)cc1

Key:
Assay type in all cases: biochemical
[1] = molecular target: T1, truncated aggrecanase-2 (Homo sapiens, UniProt Q9UNA0); assay: FRET peptide substrate screening, truncated aggrecanase-2; settings: peptide 50 uM, 60 minutes at room temperature
T1 construct: made in house; host or cells: Sf9 cells (baculovirus, pFastBac1)
T1 sequence (Q9UNA0 262-482): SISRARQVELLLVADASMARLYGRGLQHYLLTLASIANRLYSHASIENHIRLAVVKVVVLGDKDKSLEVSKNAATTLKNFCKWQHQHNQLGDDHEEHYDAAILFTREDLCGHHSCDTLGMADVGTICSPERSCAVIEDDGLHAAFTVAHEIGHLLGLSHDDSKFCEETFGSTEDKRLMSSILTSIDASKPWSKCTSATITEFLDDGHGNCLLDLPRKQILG
From the text: (§1) Fifty-six different peptides were synthesized to test for protease activity (see Table 3 below). The peptides included a collection of substrates for other proteases, as well as a number of sequences corresponding to membrane proximal cleavage sites of various proteins postulated to be released by metalloproteases (including those published by (Roghani et al., J. Biol. Chem. 274:3531-340, 1999) for ADAM9/MDC9). In order to use the principle of fluorescence resonance energy transfer, or FRET, the peptides were labeled at the C-terminus with Dabcyl and at the N-terminus with Aedans (or vice versa). Thus cleavage of the peptides was monitored by the increase in Aedans fluorescence at 460 nm (excitation 360 nm) as a result of the decrease in proximity of the Dabcyl quencher. The assay was performed by diluting the truncated aggrecanase-1 (approximately 2.5 to 5 μg of protein, 85 to 167 picomoles, SEQ ID NO:8) or truncated aggrecanase-2 (approximately 0.5 to 1 μg of protein, 17 to 33 picomoles, SEQ ID NO:9), in assay buffer (50 mM HEPES pH 7.5, 10 mM CaCl2, 0.1M NaCl and 0.05% (w/v) Brij-35 detergent (Sigma).
(§2) The reaction was initiated by the addition of peptide substrate to a final concentration of 100 uM for truncated aggrecanase-1 and 50 uM for truncated aggrecanase-2. The assays were typically run for 60 minutes at room temperature and the slope of the kinetic increase in fluorescence was determined to calculate the rate of the reaction.
FIG. 2 illustrates the relative activities for the 56 different peptides, A1 to H7 (only every alternate peptide is numbered in FIG. 2) expressed in arbitrary, but relative units. […] Peptide D7 (16 amino acids) corresponds to the sequence within aggrecan containing the Glu373-Ala374 aggrecanase cleavage site.

[2] = molecular target: T2, aggrecanase-2 (Homo sapiens, UniProt Q9UNA0); assay: Kinetic analysis of aggrecanase-2 peptide cleavage (Km, Vm); settings: aggrecanase-2, 60 minutes at room temperature, non-linear fitting; for Vm: rfu = relative fluorescence units
T2 construct: made in house; host or cells: Sf9 cells (baculovirus, pFastBac1)
T2 sequence (Q9UNA0 262-482): T1 sequence (Q9UNA0 262-482)
Procedure: To confirm the screening assay, aggrecanase-2 was further analyzed for its rate of catalysis using 2 different peptides. The assay was performed by diluting the aggrecanase-2 in assay buffer (50 mM HEPES pH 7.5, 10 mM CaCl2, 0.1M NaCl and 0.05% Brij-35). […] The assay was run for 60 minutes at room temperature. FIG. 3 illustrates the proteolytic activity (in relative fluorescence units per minute) as a function of peptide concentration for peptides FasL1 and 29CD23. The curves were fitted to the data with the program Grafit (Erithacus Software Lmited). The Vmax and Km for each substrate were calculated by non-linear fitting of the data. The cleavage site for aggrecanase-2 within each peptide was determined by LC-MS analysis to be between a glutamic acid and leucine residues in each case, as indicated in Table 2 by a carot within each peptide sequence. […] However, these are clearly not the only requirements for efficient cleavage, as a number of the 56 peptides tested have similar residues and were not cleaved by the aggrecanases.

[3] = molecular target: T3, Aggrecanase-1 (Homo sapiens, UniProt O75173); assay: Drug screening assay, aggrecanase-1 FasL1 FRET peptide cleavage; settings: inhibitor 7.5 micromolar, FasL1 225 μM, 200 minutes at room temperature
T3 construct: made in house; host or cells: Sf9 cells (baculovirus, pFastBac1)
T3 sequence (O75173 213-437): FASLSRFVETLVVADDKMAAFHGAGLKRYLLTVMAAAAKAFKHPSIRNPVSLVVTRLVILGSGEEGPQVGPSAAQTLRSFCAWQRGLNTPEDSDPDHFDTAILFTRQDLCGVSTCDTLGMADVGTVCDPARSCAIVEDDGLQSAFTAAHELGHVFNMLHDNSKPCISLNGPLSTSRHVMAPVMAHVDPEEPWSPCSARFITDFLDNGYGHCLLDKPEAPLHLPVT
Procedure: Aggrecanase-1 ([…] of protein, 85 to 167 picomoles) was diluted in assay buffer (50 mM HEPES pH 7.5, 10 mM CaCl2, 0.1M NaCl, 0.05% Brij-35). Samples were prepared containing putative inhibitors A (Chen et al. Biorg. Med. Chem. Lett. 6(13):1601-1606, 1996) or B (Bailey, et al. Biorg. Med. Chem. Lett. 9(21):3165-3170, 1999), shown below, at a final concentration of 7.5 micromolar. The final % DMSO in the assay was 3% and it was determined experimentally that this concentration was not detrimental to the activity of the enzyme. The reaction was initiated by the addition of FasL1 peptide substrate to a final concentration of 225 μM and readings were taken at one-minute intervals, for a total of 200 minutes at room temperature.
The assay was always performed at enzyme and substrate concentrations where the activity was linearly related to enzyme concentration and where the increase in fluorescence (reaction rate) was linear for at least the time of the assay. From FIG. 4A, it can be seen that for kinetic analysis, the signal-to-noise ratio is effectively infinite, as no change in the background (blank, no enzyme) is observed over the time of the assay. For endpoint measurements, the enzyme and substrate concentrations could be adjusted to achieve the desired signal-to-noise ratio. […]

[4] = molecular target: T2, aggrecanase-2; assay: IC50 analysis for inhibition of aggrecanase-2, FasL1 FRET peptide cleavage; settings: FasL1 225 μM, 60 minutes at room temperature, inhibitor 0.1 to 12.5 μM
Procedure: Aggrecanase-2 (0.5 to 1 μg of protein, 17 to 33 picomoles) was diluted in assay buffer (50 mM HEPES pH 7.5, 10 mM CaCl2, 0.1M NaCl, 0.05% Brij-35). Samples were prepared containing Inhibitor A, B or C (shown above) at final concentrations ranging from 0.1 to 12.5 μM (final DMSO concentration of 1.5%). Duplicate assays were run for each concentration of Inhibitor A, B and C (purchased from Peptides International, TAPI-0, Cat. No. INH 3850-P1) for 60 minutes at room temperature. The reaction was initiated by the addition of FasL1 peptide substrate to a final concentration of 225 μM. The reaction rates over 60 minutes at room temperature, in the absence (control) and presence of various concentrations of the inhibitor, were determined by linear regression of the data points. The reaction rate data in FIG. 4B were fitted by non-linear regression using the program Grafit (Erithacus Software).

[5] = molecular target: T4, truncated aggrecanase-1 (Homo sapiens, UniProt O75173); assay: FRET peptide substrate screening, truncated aggrecanase-1; settings: peptide 100 uM, 60 minutes at room temperature
T4 construct: made in house; host or cells: Sf9 cells (baculovirus, pFastBac1)
T4 sequence (O75173 213-437): T3 sequence (O75173 213-437)
From the text: as §1, with “The assay was performed by diluting the truncated aggrecanase-1 (approximately 2.5 to 5 μg of protein, 85 to 167 picomoles, SEQ ID NO:8) or truncated aggrecanase-2 (approximately 0.5 to 1 μg of protein, 17 to 33 picomoles, SEQ ID NO:9), in assay buffer (50 mM HEPES pH 7.5, 10 mM CaCl2, 0.1M NaCl and 0.05% (w/v) Brij-35 detergent (Sigma).” left out
as §2, with “reaction. […]” for “reaction.”

[6] = molecular target: T5, MMP7 (Homo sapiens, UniProt P09237); assay: Similar peptide substrate screening assay with MMP7; settings: similar screening assays
T5 construct: purchased Chemicon CC1059
T5 sequence (P09237 95-267): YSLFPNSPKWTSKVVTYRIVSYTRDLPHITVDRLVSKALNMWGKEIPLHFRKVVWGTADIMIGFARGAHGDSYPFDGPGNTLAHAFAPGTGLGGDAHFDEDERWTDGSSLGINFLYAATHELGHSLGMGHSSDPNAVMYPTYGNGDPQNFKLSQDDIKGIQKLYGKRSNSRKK

[7] = molecular target: T6, MMP13 (Homo sapiens, UniProt P45452); assay: Similar peptide substrate screening assay with MMP13; settings: similar screening assays
T6 construct: purchased Chemicon CC068

Compound: (Aedans)EADLSSFKSQEL(Dabcyl)K-amide (EADLSSFKSQELK(Dabcyl′)-NH2; not fully specified (residue 1, N-terminus); printed as (Aedans)EADLSSFKSQEL(Dabcyl)K-amide; also: Aedans label on N-terminal Glu (N-terminus or side chain not given here)) [Peptide 29CD23]
- relative activity of truncated aggrecanase-2 for the peptide (FIG. 2) [1]: high activity
- Km [2]: 40 µM
- Vm [2]: 0.6 rfu/min

Compound: CC(C)C[C@@H](CC(=O)NO)C(=O)N[C@@H](CC(C)C)c1ncc(-c2ccccc2)[nH]1 [Inhibitor A]
- inhibition of aggrecanase-1 enzyme activity (FIG. 4A) [3]: completely inhibited
- IC50 [4]: 118 ± 5 nM

Compound: (Aedans)ERNITEGEARGSVIL(Dabcyl)K-amide (ERNITEGEARGSVILK(Dabcyl′)-NH2; not fully specified (residue 1, N-terminus); printed as (Aedans)ERNITEGEARGSVIL(Dabcyl)K-amide; also: Aedans label on N-terminal Glu (N-terminus or side chain not given here)) [Peptide D7]
- relative activity of truncated aggrecanase-1 for the peptide (FIG. 2) [5]: Neither truncated aggrecanase-1 nor truncated aggrecanase-2 showed any activity
- relative activity of truncated aggrecanase-2 for the peptide (FIG. 2) [1]: Neither truncated aggrecanase-1 nor truncated aggrecanase-2 showed any activity

Compound: (Aedans)EKELAELRESTS(Dabcyl)K-amide (EKELAELRESTSK(Dabcyl′)-NH2; not fully specified (residue 1, N-terminus); printed as (Aedans)EKELAELRESTS(Dabcyl)K-amide; also: Aedans label on N-terminal Glu (N-terminus or side chain not given here)) [FasL1]
- relative activity of truncated aggrecanase-1 for the peptide (FIG. 2) [5]: highest activity
- relative activity of truncated aggrecanase-2 for the peptide (FIG. 2) [1]: highest activity
- Km [2]: 80 µM
- Vm [2]: 2.8 rfu/min
- suitability as substrate for MMP7 [6]: suitable substrate
- suitability as substrate for MMP13 [7]: suitable substrate

Compound: CC(C)C[C@@H](CC(=O)NO)C(=O)N[C@@H](Cc1ccc2ccccc2c1)C(=O)N[C@@H](C)C(N)=O [Inhibitor C, TAPI-0]
- IC50 [4]: 102 ± 23 nM

Compound: CC(C)(C)C(NC(=O)C(Cc1ccc2ccccc2c1)[C@H](O)C(=O)NO)C(N)=O (stereo partly shown) [Inhibitor B]
- inhibition of aggrecanase-1 enzyme activity (FIG. 4A) [3]: completely inhibited
- IC50 [4]: 38 ± 8 nM
